Measured values taken from US20240368300A1 (UCME BIOSCIENCE S R L, published 2024).
Blank lines part the entries; values can stand above or below the binder they belong to.

Legend:
[1] = biological target: T1, recombinant soluble human CD93 extracellular domain fused to a 6xHis tag (human, UniProt Q9NPY3 24-580); experiment: SPR (BIAcore), 4E1 immobilized on chip, recombinant CD93 injected, 1:1 fit
T1 construct: extracellular domain; also called recombinant CD93; soluble CD93 protein
T1 sequence: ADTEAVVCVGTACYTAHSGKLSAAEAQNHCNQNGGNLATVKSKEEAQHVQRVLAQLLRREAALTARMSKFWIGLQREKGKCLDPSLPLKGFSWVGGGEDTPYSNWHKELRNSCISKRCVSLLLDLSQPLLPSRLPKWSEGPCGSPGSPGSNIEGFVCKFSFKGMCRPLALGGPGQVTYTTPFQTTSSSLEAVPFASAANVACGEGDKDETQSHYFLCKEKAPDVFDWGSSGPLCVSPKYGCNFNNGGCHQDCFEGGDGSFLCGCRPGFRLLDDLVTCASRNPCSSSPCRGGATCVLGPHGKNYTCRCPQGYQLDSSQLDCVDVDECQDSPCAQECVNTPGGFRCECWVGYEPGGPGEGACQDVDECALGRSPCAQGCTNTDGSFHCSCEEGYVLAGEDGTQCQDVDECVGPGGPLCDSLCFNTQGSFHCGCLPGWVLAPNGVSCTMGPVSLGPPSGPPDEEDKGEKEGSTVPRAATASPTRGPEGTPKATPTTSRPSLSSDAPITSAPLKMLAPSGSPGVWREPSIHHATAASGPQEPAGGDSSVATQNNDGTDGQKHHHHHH
Method: The binding analysis was performed using a BIAcore 3000 equipped with a CM5 sensor chip. Briefly, 4E1 antibody was immobilized via amine groups on a CM5 sensor chip following standard procedures (flow rate 5 μl/min). For the immobilization, 4E1 diluted in 10 mM Na acetate pH 4.0 at the concentration of 10 μg/ml was injected for 360 sec over the dextran matrix on flow cell, which had been previously activated with a mixture of EDC-NHS for 420 sec. After injection of the antibody, a pulse of Ethanolamine 1M was performed to neutralize activated groups. A reference flow cell to be used as blank, was simultaneously subjected to identical procedures, but the injection of Antibody, which was substituted with injection of dilution buffer alone (HBS-EP+). Recombinant purified CD93 protein was diluted in HBS-EP+ at different concentration (1 μg/ml, 2.5 μg/ml, […] and 20 μg/ml) and injected for 180 s at a flow rate of 60 μl/min on flow cell 4 and on reference flow cell 3. […] Sensorgrams illustrated in the figure are obtained by subtraction from sensorgrams on Fc4 of those obtained on Fc3. Kinetic rates were calculated applying a 1:1 binding as fitting model using the Bia T200 evaluation software 2.0.1

[2] = biological target: T1, recombinant soluble human CD93 …; experiment: SPR (BIAcore), rec4E1 immobilized on chip, recombinant CD93 injected, 1:1 fit
Method: The binding analysis was performed using a BIAcore 3000 equipped with a CM5 sensor chip. Briefly, rec4E1 or 4E1 antibodies were immobilized via amine groups on a CM5 sensor chip following standard procedures. For the immobilization, the antibody diluted in 10 mM Na acetate pH 4.0 at the concentration of 10 μg/ml was injected for 360 sec over the dextran matrix on flow cell, which had been previously activated with a mixture of EDC-NHS for 420 sec. After injection of the antibody, a pulse of Ethanolamine 1 M was used to neutralize activated groups. A reference flow cell to be used as blank was simultaneously subjected to identical procedures, but the antibody was substituted with dilution buffer (HBS-EP+). Recombinant purified CD93 protein was diluted in HBS-EP+ at different concentration (10, 25, 50, 100, 250, and 500 ng/mL) and injected for 180 s at a flow rate of 60 μl/min on all flow cells. […] Kinetic rates were calculated applying a 1:1 binding as fitting model using the Bia T200 evaluation software 2.0.1.

human full-length CD93 = biological target: T2, human full-length CD93 (human, UniProt Q9NPY3 22-652); experiment: immunofluorescence on fixed, permeabilized late spreading HUVECs
T2 construct: whole, on cells; Used in two settings; also called human CD93 protein
T2 sequence (looked up): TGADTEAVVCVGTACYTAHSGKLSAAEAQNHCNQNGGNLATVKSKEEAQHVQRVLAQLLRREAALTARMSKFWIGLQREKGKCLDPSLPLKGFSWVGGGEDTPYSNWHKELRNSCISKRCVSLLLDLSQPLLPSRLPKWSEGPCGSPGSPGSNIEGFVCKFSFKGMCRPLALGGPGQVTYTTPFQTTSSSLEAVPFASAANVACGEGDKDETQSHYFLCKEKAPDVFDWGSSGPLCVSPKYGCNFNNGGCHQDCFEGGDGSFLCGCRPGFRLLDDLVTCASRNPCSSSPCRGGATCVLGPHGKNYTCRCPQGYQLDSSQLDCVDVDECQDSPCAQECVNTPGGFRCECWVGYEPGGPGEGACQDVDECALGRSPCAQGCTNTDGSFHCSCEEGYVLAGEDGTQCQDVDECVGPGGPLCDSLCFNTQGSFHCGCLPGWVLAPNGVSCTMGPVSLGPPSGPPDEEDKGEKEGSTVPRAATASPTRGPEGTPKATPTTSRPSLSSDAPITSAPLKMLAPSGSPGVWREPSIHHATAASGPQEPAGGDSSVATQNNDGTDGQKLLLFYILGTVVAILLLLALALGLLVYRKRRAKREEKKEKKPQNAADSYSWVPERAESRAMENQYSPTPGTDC
Method: Zip Alexa Fluor Rapid Antibody Labeling kit (Thermo Fisher Scientific) was used to efficiently and quickly label the mAb 4E1 with Alexa Fluor 488 following the manufacturer's instructions. Briefly, 10 μl of 1 M sodium bicarbonate solution were added to 100 μl of 4E1 solution (1 mg/ml). Next, the antibody solution was incubated for 15 min at room temperature with the fluorochrome solution (Component B) and used in immunofluorescence experiments.
Cells were seeded onto gelatin-coated glass coverslips and fixed in 3% paraformaldehyde for 15 min at room temperature during the late spreading phase. Samples were permeabilized with 0.1% Triton X-100 in PBS, and blocked with 0.3% w/v BSA in PBS, each for 15 min at room temperature. Next, cells were washed with PBS and incubated 1 h at room temperature with Alexa Fluor 488-labeled 4E1 and rabbit anti-MMRN2 antibodies. Then, samples were washed three times with PBS/0.1% Tween-20 and incubated with secondary Alexa Fluor 568-labeled anti-rabbit antibodies (Thermo Fisher Scientific), diluted at 25 μg/mL in PBS/0.1% Tween-20. After washing, coverslips were mounted with Mowiol mounting medium. Fluorescent images were captured using a Leica TCS SP2 AOBS confocal laser-scanning microscope and overlaid images were produced. A Leica HCX PL APO Ibd.BL 63×/1.40 oil objective was used. […]

Kd [1]: 0.45 nM
B1: anti-CD93 monoclonal antibody 4E1 (from hybridoma) (antibody, IgG1, V domains shown)
VH: QEQLQQPGTELVKPGASVRLSCKTSGYTFASYTLHWVKQTPGQGLDWIGAIYPGNGDTSYNQKFKDKATLTADKSSSTAYMQLSNLTSEDSAVYYCARLDWYFDLWGAGTTVTVS
VL: DIVLTQSPTSLAVSLGQRATISCKASQSVDYDGDSYMNWYQQKPGQPPRLLIYAASNLESGIPARFSGSGSGTDFTLNIHPVEEEDAATYYCQQNNEDPRTFGGGTKLEIK
notes: Mouse hybridoma antibody, full length, isotype IgG1 with k light chain; also called mAb 4E1; anti-CD93 4E1 mAb

Kd [2]: 0.00509 nM
B2: recombinant anti-CD93 monoclonal antibody rec4E1 (antibody, V domains shown)
VH: B1 VH
VL: B1 VL
notes: Whole recombinant IgG1 expressed in CHO cells from the pTRIOZ vector; The light chain constant region is not described; also called recombinant 4E1

binding result (human full-length CD93): binds
B3: Alexa Fluor 488-labeled 4E1 (antibody, V domains shown)
VH: B1 VH
VL: B1 VL
modifications: Alexa Fluor 488 dye conjugated to the antibody (site and chain not stated)
notes: mAb 4E1 (mouse IgG1 k) labelled with the Zip Alexa Fluor Rapid Antibody Labeling kit; also called conjugated 4E1
